Measurements as given in PMC8679783 (2021).

Target: RDO24_mFab2 (mouse, UniProt P01863 = IgG part)
Assay: SPR

B1: recombinant human MET ECD-Fc (Recombinant Human HGFR/c-MET Fc Chimera His-tag Protein) (Fc fusion)
chain: ECKEALAKSEMNVNMKYQLPNFTAETPIQNVILHEHHIFLGATNYIYVLNEEDLQKVAEYKTGPVLEHPDCFPCQDCSSKANLSGGVWKDNINMALVVDTYYDDQLISCGSVNRGTCQRHVFPHNHTADIQSEVHCIFSPQIEEPSQCPDCVVSALGAKVLSSVKDRFINFFVGNTINSSYFPDHPLHSISVRRLKETKDGFMFLTDQSYIDVLPEFRDSYPIKYVHAFESNNFIYFLTVQRETLDAQTFHTRIIRFCSINSGLHSYMEMPLECILTEKRKKRSTKKEVFNILQAAYVSKPGAQLARQIGASLNDDILFGVFAQSKPDSAEPMDRSAMCAFPIKYVNDFFNKIVNKNNVRCLQHFYGPNHEHCFNRTLLRNSSGCEARRDEYRTEFTTALQRVDLFMGQFSEVLLTSISTFIKGDLTIANLGTSEGRFMQVVVSRSGPSTPHVNFLLDSHPVSPEVIVEHTLNQNGYTLVITGKKITKIPLNGLGCRHFQSCSQCLSAPPFVQCGWCHDKCVRSEECLSGTWTQQICLPAIYKVFPNSAPLEGGTRLTICGWDFGFRRNNKFDLKKTRVLLGNESCTLTLSESTMNTLKCTVGPAMNKHFNMSIIISNGHGTTQYSTFSYVDPVITSISPKYGPMAGGTLLTLTGNYLNSGNSRHISIGGKTCTLKSVSNSILECYTPAQTISTEFAVKLKIDLANRETSIFSYREDPIVYEIHPTKSFISGGSTITGVGKNLNSVSVPRMVINVHEAGRNFTVACQHRSNSEIICCTTPSLQQLNLQLPLKTKAFFMLDGILSKYFDLIYVHNPVFKPFEKPVMISMGNENVLEIKGNDIDPEAVKGEVLKVGNKSCENIHLHSEAVLCTVPNDLLKLNSELNIEWKQAISSTVLGKVIVQPDQNFT
  koff: 0.000335 s⁻¹
